Test results from the supplement of paper PMC9170038.

Tested on: MS2 coat protein
Experiment: apparent KD of MS2 coat protein; designed switch direction (-1 OFF switch, 1 ON switch): -1; higher = weaker reporter binding
Procedure, shortened: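 The reported apparent KD is a per-design median over clusters, from curve fits of normalised cluster fluorescence. Protein titrations used SNAP-549-labelled MS2 coat protein, doubled from 0.7 or 1.5 nM to 3 µM, in Tris-HCl pH 7.5 buffer with KCl, MgCl2, BSA, DTT, tRNA and Tween-20, with no input, 200 uM small-molecule ligand, or an oligonucleotide input. The RNA switches were transcribed on Illumina chips by stalled E. coli RNA polymerase.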

[1] = input ligand: microRNA oligo, concentration not stated
[2] = Eterna round: R95, input ligand: microRNA oligo, concentration not stated

## AAGUACCGGUGAGGAUAUUUAUAAUAGAGCUUUAUGAUAUACAUGAGGAUCACCCAUGUUACUUUAAAGAAGGCAUCGGAUUAA [Mat - Exclusion NG 2 - Mod of JL - D92] (Eterna round: R96, puzzle: Exclusion NG 2)
Input ligand: FMN 200 uM
  apparent KD of MS2 coat protein: 19.2 nM
[1]
  apparent KD of MS2 coat protein: 11.1 nM
Input ligand: none
  apparent KD of MS2 coat protein: 18.1 nM

## GUAGAGUCAGGAUAUACGAGAUCGAAAGAUCGGCGAUCCAUACAUGAGGAUCACCCAUGUAGAAGGGACUCUAC [ChP 11-04-2015 #5] (puzzle: Exclusion 2)
[2]
  apparent KD of MS2 coat protein: 14.2 nM

## AUAAUUUAAGGAUAUACGUGGCGAGCCAGAUAGCUGGGUCUACAUGAGGAUCACCCAUGUAGAAGGUAAGGAUU [Eternabot (L1) Solution 23] (Eterna round: R97, puzzle: Exclusion 2)
Input ligand: FMN 200 uM
  apparent KD of MS2 coat protein: 17.8 nM
Input ligand: none
  apparent KD of MS2 coat protein: 18.6 nM

## GUGAAACAUGAGGAUCACCCAUGUCAGGAUAUGCGAAUUUCAUCAAAAGAUGAAAUUUGCAGAAGGGACUGUAC [Omei Ex1 A21] (Eterna round: R97, puzzle: Exclusion 1)
Input ligand: FMN 200 uM
  apparent KD of MS2 coat protein: 136 nM
Input ligand: none
  apparent KD of MS2 coat protein: 70.3 nM

## UUUAUAGUAGGAUAUACAUGAGGAUCACCCAUGUAGUAGGGAAGACCUUGGUGGGAACGUAGAAGGACUUGGAG [Eternabot (L2) Solution 44] (Eterna round: R97, puzzle: Exclusion 3)
Input ligand: FMN 200 uM
  apparent KD of MS2 coat protein: 73.3 nM
Input ligand: none
  apparent KD of MS2 coat protein: 74.2 nM

## GAGAAGUGAGGAUAUGCGAUAAGGAUGAAAGGAAGGAAUGAGUAGAAGGCACAUGAGGAUCACCCAUGUAGAGU [JR_Exclu4_Sub080] (puzzle: Exclusion 4)
Eterna round: R95, input ligand: FMN 200 uM
  apparent KD of MS2 coat protein: 25.3 nM
[2]
  apparent KD of MS2 coat protein: 21.3 nM
Eterna round: R95, input ligand: none
  apparent KD of MS2 coat protein: 21 nM

## AUAAAUCAUGUAGGAUAUGCGUGGCAAAGCUAUGCAGAAGGACAUGAGGAUCACCCAUGUGCUUCCGUCUGCGUACAGACGGUA [Mat - Exclusion NG 1 - Mod of JL - D33] (Eterna round: R96, puzzle: Exclusion NG 1)
Input ligand: FMN 200 uM
  apparent KD of MS2 coat protein: 114 nM
[1]
  apparent KD of MS2 coat protein: 80.7 nM
Input ligand: none
  apparent KD of MS2 coat protein: 107 nM

## UUUAAAUGAGGAUAUAGGAUCUUAGACAUGAGGAUCACCCAUGUGAAAUCAGACCUAGUCCUAGAAGGCGUAUGAC [Eternabot (L1) Solution 100] (Eterna round: R97, puzzle: Exclusion 5)
Input ligand: FMN 200 uM
  apparent KD of MS2 coat protein: 13.5 nM
Input ligand: none
  apparent KD of MS2 coat protein: 12.4 nM

## CUUGUGUGAGGAUAUGACAAUGGUAUCUUCGGAUACCAUUGUCAGAAGGUACAUGAGGAUCACCCAUGUAGAUC [Exclusion 4 - Mod Brourd Ex 4-3: 20] (puzzle: Exclusion 4)
[2]
  apparent KD of MS2 coat protein: 72 nM

## CCCAGUUAGGAAGGAUAUUGUACAUGAGGAUCACCCAUGUAAUAAAUGAGGAUCUCGGAUGUCUACAAGAAGGUCCGGAUAGGC [Ostracism 11 - Jieux - Exclusion NG 2] (Eterna round: R96, puzzle: Exclusion NG 2)
Input ligand: FMN 200 uM
  apparent KD of MS2 coat protein: 65.9 nM
[1]
  apparent KD of MS2 coat protein: 34.3 nM
Input ligand: none
  apparent KD of MS2 coat protein: 44.5 nM

## UCACGGGACUAAGGAUAUAUGAGUACCAUUUACAUAGAAGGUAGAAUGUUAGAUCAUAAACUAAACAUGAGGAUCACCCAUGUU [JR_ExcNG1_Sub092] (Eterna round: R96, puzzle: Exclusion NG 1)
[1]
  apparent KD of MS2 coat protein: 15.3 nM

## GGUAUACAUGAGGAUCACCCAUGUCAGGAUAUGUAUGCAUAUGCCGAAAGGCAUAUGCUCAGAAGGGACUAUAU [AK-MS2ROC-r4-exclusion1-4.0] (Eterna round: R97, puzzle: Exclusion 1)
Input ligand: FMN 200 uM
  apparent KD of MS2 coat protein: 42.4 nM
Input ligand: none
  apparent KD of MS2 coat protein: 32 nM

## UUCACAUGGACAUAAGAUCACAUGAGGAUCACCCAUGUGAAUAACAAGCUUUUUGUUCGUCUUAUGUCCAAUAAUAU [Stov1/14-B3] (Eterna round: R97, puzzle: Sensor, turn-off variant 1)
Input ligand: FMN 200 uM
  apparent KD of MS2 coat protein: 13.9 nM
Input ligand: none
  apparent KD of MS2 coat protein: 12.2 nM

## ACAUGUGUUGUAGGAUAUAGGACACAUGAGGAUCACCCAUGUGGUUUCAUGUCUAACCAAGCGUCCUAGAAGGACGGCAACAUG [Ex NG2 #27] (Eterna round: R96, puzzle: Exclusion NG 2)
Input ligand: FMN 200 uM
  apparent KD of MS2 coat protein: 23.4 nM
[1]
  apparent KD of MS2 coat protein: 19.4 nM
Input ligand: none
  apparent KD of MS2 coat protein: 19.4 nM

## GUUCGACAUGAGGAUCACCCAUGUGAGGAUAUACGAUUAGCUGCUAGGUAGUUAGUAUGUAGAAGGUGCAUGAA [EX1 #73] (Eterna round: R97, puzzle: Exclusion 1)
Input ligand: FMN 200 uM
  apparent KD of MS2 coat protein: 55.2 nM
Input ligand: none
  apparent KD of MS2 coat protein: 41.7 nM

## GCGCACCUACCAAAAGGUAGGUCAACAUGAGGAUCACCCAUGUAGGAUAUCGAUUGCUUUGCAGUCGAGAAGGACGUGAUGCGC [JL ENG3 3.80 Mod 15] (Eterna round: R96, puzzle: Exclusion NG 3)
Input ligand: FMN 200 uM
  apparent KD of MS2 coat protein: 38 nM
[1]
  apparent KD of MS2 coat protein: 24.5 nM
Input ligand: none
  apparent KD of MS2 coat protein: 34.3 nM

## AACAGGACAGGAUAUACAUGAGGAUCACCCAUGUAGGAAACAAGCAGAGUACCAAAAAGUAGAAGGGUCAUGGA [Ruby 30] (Eterna round: R96, puzzle: Exclusion 3)
[1]
  apparent KD of MS2 coat protein: 53.6 nM

## UUUUAGCUAGGAUAUACAUUUUUUUUAUUAUCCUCAUUAUUACAUGAGGAUCACCCAUGUAGAAGGAGCAUUUU [My Design] (puzzle: Exclusion 2)
[2]
  apparent KD of MS2 coat protein: 219 nM

## AACCUGAGGCUUUGCUUUAGGUGUACAUGAGGAUCACCCAUGUAGGAUAUGGUAGGCAAAGCUUACCAGAAGGACAUUUAGGUU [Mat - Exclusion NG 3 - Mod of JL - D43] (Eterna round: R96, puzzle: Exclusion NG 3)
Input ligand: FMN 200 uM
  apparent KD of MS2 coat protein: 72.8 nM
[1]
  apparent KD of MS2 coat protein: 34.3 nM
Input ligand: none
  apparent KD of MS2 coat protein: 41.4 nM
